Drawing on patent US11208452B2, this text covers Receptor binding (hIRA) SPA, sup % relative to HI (% relative to HI) for 58 substances.

The test deals with human insulin receptor IR-A (solubilised holoreceptor) (human) (UniProt P06213). Nature of the test: competition SPA: displacement of [125I-A14Y]-human insulin from solubilised human IR-A, relative to human insulin standard.

In turn, “A14E, A21G(GAPQ)50, B25H, desB30 human insulin (from UniProt P01308) (ligand)” returned a Receptor binding (hIRA) SPA, sup % relative to HI (% relative to HI) of 3.13.
“A14E, A21G(GEHP)50, B25H, desB30 human insulin (from UniProt P01308) (ligand)” displayed a Receptor binding (hIRA) SPA, sup % relative to HI (% relative to HI) of 3.1.
The value for “A14E, A21G(GEPH)50, B25H, desB30 human insulin (from UniProt P01308) (ligand)” was 3.3; that for “A14E, A21G(GQAP)50, B25H, desB30 human insulin (from UniProt P01308) (ligand)” was 3.15; that for “A14E, A21G(GQAP)75, B25H, desB30 human insulin (from UniProt P01308) (ligand)” was 2.41.
In turn, “A14E, A21G(GQAP)150, B25H, desB30 human insulin (from UniProt P01308) (ligand)” showed a Receptor binding (hIRA) SPA, sup % relative to HI (% relative to HI) of 2.1.
The figure for “A14E, A21G(GQEP)50, B25H, desB30 human insulin (from UniProt P01308) (ligand)” is 3; for “A21G(GAQ)67, desB30 human insulin (from UniProt P01308) (ligand)” it is 6.99; for “A21G(GAQP)50, desB30 human insulin (from UniProt P01308) (ligand)” it is 4.66.
“A21G(GEH)67, desB30 human insulin (from UniProt P01308) (ligand)” gave a Receptor binding (hIRA) SPA, sup % relative to HI (% relative to HI) of 4.85.
The value for “A21G(GEPQ)50, desB30 human insulin (from UniProt P01308) (ligand)” was 8.24; that for “A21G(GEQ)67, desB30 human insulin (from UniProt P01308) (ligand)” was 8.48; that for “A21G(GEQH)50, desB30 human insulin (from UniProt P01308) (ligand)” was 7.77.
“A21G(GEQP)50, desB30 human insulin (from UniProt P01308) (ligand)” came in with a Receptor binding (hIRA) SPA, sup % relative to HI (% relative to HI) of 9.04.
On to “A21G(GHEP)50, desB30 human insulin (from UniProt P01308) (ligand)”, for which the Receptor binding (hIRA) SPA, sup % relative to HI (% relative to HI) was 4.67.
For the substance “A21G(GHEQ)50, desB30 human insulin (from UniProt P01308) (ligand)”, the Receptor binding (hIRA) SPA, sup % relative to HI (% relative to HI) was 6.7.
Substance “A21G(GHPE)50, desB30 human insulin (from UniProt P01308) (ligand)” registered a Receptor binding (hIRA) SPA, sup % relative to HI (% relative to HI) of 3.47.
In turn, “A21G(GHQE)50, desB30 human insulin (from UniProt P01308) (ligand)” registered a Receptor binding (hIRA) SPA, sup % relative to HI (% relative to HI) of 9.41.
The figure for “A21G(GPAQ)50, desB30 human insulin (from UniProt P01308) (ligand)” is 6.5; for “A21G(GPEH)50, desB30 human insulin (from UniProt P01308) (ligand)” it is 10.1.
The value for “A21G(GPEQ)50, desB30 human insulin (from UniProt P01308) (ligand)” was 8.18; that for “A21G(GPHE)50, desB30 human insulin (from UniProt P01308) (ligand)” was 7.85.
On to “A21G(GPQA)50, desB30 human insulin (from UniProt P01308) (ligand)”, for which the Receptor binding (hIRA) SPA, sup % relative to HI (% relative to HI) is 5.05.
In turn, “A21G(GPQE)50, desB30 human insulin (from UniProt P01308) (ligand)” had a Receptor binding (hIRA) SPA, sup % relative to HI (% relative to HI) of 6.53.
As to “A21G(GQA)67, desB30 human insulin (from UniProt P01308) (ligand)”, the Receptor binding (hIRA) SPA, sup % relative to HI (% relative to HI) was 4.11.
“A21G(GQAP)31, desB30 human insulin (from UniProt P01308) (ligand)” displayed a Receptor binding (hIRA) SPA, sup % relative to HI (% relative to HI) of 4.55.
For “A21G(GQAP)37, desB30 human insulin (from UniProt P01308) (ligand)”, the Receptor binding (hIRA) SPA, sup % relative to HI (% relative to HI) worked out at 5.33.
“A21G(GQAP)44, desB30 human insulin (from UniProt P01308) (ligand)” yielded a Receptor binding (hIRA) SPA, sup % relative to HI (% relative to HI) of 6.34.
Substance “A21G(GQAP)50, desB30 human insulin (from UniProt P01308) (ligand)” displayed a Receptor binding (hIRA) SPA, sup % relative to HI (% relative to HI) of 4.56.
The value for “A21G(GQAP)56, desB30 human insulin (from UniProt P01308) (ligand)” was 3.49.
With “A21G(GQAP)62, desB30 human insulin (from UniProt P01308) (ligand)”, the Receptor binding (hIRA) SPA, sup % relative to HI (% relative to HI) was determined as 4.45.
“A21G(GQAP)69, desB30 human insulin (from UniProt P01308) (ligand)” displayed a Receptor binding (hIRA) SPA, sup % relative to HI (% relative to HI) of 4.2.
Regarding “A21G(GQAP)75, desB30 human insulin (from UniProt P01308) (ligand)”, the Receptor binding (hIRA) SPA, sup % relative to HI (% relative to HI) stood at 4.19.
As to “A21G(GQAP)100, desB30 human insulin (from UniProt P01308) (ligand)”, the Receptor binding (hIRA) SPA, sup % relative to HI (% relative to HI) was found to be 3.19.
For “A21G(GQAP)125, desB30 human insulin (from UniProt P01308) (ligand)”, the Receptor binding (hIRA) SPA, sup % relative to HI (% relative to HI) came out at 2.65.
“A21G(GQAP)150, desB30 human insulin (from UniProt P01308) (ligand)” came in with a Receptor binding (hIRA) SPA, sup % relative to HI (% relative to HI) of 2.87.
As to “A21G(GQE)67, desB30 human insulin (from UniProt P01308) (ligand)”, the Receptor binding (hIRA) SPA, sup % relative to HI (% relative to HI) worked out at 6.6.
“A21G(GQEH)50, desB30 human insulin (from UniProt P01308) (ligand)” returned a Receptor binding (hIRA) SPA, sup % relative to HI (% relative to HI) of 5.99.
The value for “A21G(GQEPGQHP)25, desB30 human insulin (from UniProt P01308) (ligand)” was 4.06; that for “A21G(GQHE)50, desB30 human insulin (from UniProt P01308) (ligand)” was 7.83; that for “A21G(GQPA)50, desB30 human insulin (from UniProt P01308) (ligand)” was 4.26.
The value for “A21G(GQPE)50, desB30 human insulin (from UniProt P01308) (ligand)” was 4.09; that for “A21G, A22A, A23P, A24Q(GAPQ)49, desB30 human insulin (from UniProt P01308) (ligand)” was 9.98.
In turn, “A21G, A22A, A23Q, A24P(GAQP)37, desB30 human insulin (from UniProt P01308) (ligand)” gave a Receptor binding (hIRA) SPA, sup % relative to HI (% relative to HI) of 5.71.
Consider “A21G, A22A, A23Q, A24P(GAQP)49, desB30 human insulin (from UniProt P01308) (ligand)”, for which the Receptor binding (hIRA) SPA, sup % relative to HI (% relative to HI) was 4.38.
In turn, “A21G, A22A, A23Q, A24P(GAQP)62, desB30 human insulin (from UniProt P01308) (ligand)” gave a Receptor binding (hIRA) SPA, sup % relative to HI (% relative to HI) of 3.89.
Substance “A21G, A22P, A23A, A24Q(GPAQ)49, desB30 human insulin (from UniProt P01308) (ligand)” gave a Receptor binding (hIRA) SPA, sup % relative to HI (% relative to HI) of 5.7.
“A21G, A22P, A23Q, A24A(GPQA)49, desB30 human insulin (from UniProt P01308) (ligand)” displayed a Receptor binding (hIRA) SPA, sup % relative to HI (% relative to HI) of 5.26.
“A21G, A22Q, A23A, A24P(GQAP)49, desB30 human insulin (from UniProt P01308) (ligand)”: the Receptor binding (hIRA) SPA, sup % relative to HI (% relative to HI) worked out at 4.92.
The substance “A21G, A22Q, A23P(GQP)66, desB30 human insulin (from UniProt P01308) (ligand)” returned a Receptor binding (hIRA) SPA, sup % relative to HI (% relative to HI) of 0.08.
Take “A21G, A22Q, A23P, A24A(GQPA)49, desB30 human insulin (from UniProt P01308) (ligand)”: the Receptor binding (hIRA) SPA, sup % relative to HI (% relative to HI) was determined as 5.53.
The value for “A21G, B1F(GQAP)50, desB30 human insulin (from UniProt P01308) (ligand)” was 8.38.
“A21G, B1F(GQAP)100, desB30 human insulin (from UniProt P01308) (ligand)” displayed a Receptor binding (hIRA) SPA, sup % relative to HI (% relative to HI) of 4.98.
In turn, “A21Q(GAPQ)50, desB30 human insulin (from UniProt P01308) (ligand)” had a Receptor binding (hIRA) SPA, sup % relative to HI (% relative to HI) of 7.52.
In turn, “A21Q(GEHP)50, desB30 human insulin (from UniProt P01308) (ligand)” yielded a Receptor binding (hIRA) SPA, sup % relative to HI (% relative to HI) of 5.41.
“A21Q(GEPH)50, desB30 human insulin (from UniProt P01308) (ligand)” came in with a Receptor binding (hIRA) SPA, sup % relative to HI (% relative to HI) of 5.09.
“A21Q(GQAP)50, desB30 human insulin (from UniProt P01308) (ligand)” registered a Receptor binding (hIRA) SPA, sup % relative to HI (% relative to HI) of 6.55.
Turning to “A21Q(GQEP)50, desB30 human insulin (from UniProt P01308) (ligand)”, the Receptor binding (hIRA) SPA, sup % relative to HI (% relative to HI) is 8.54.
